Assay [1] has as its target T1, recombinant human GDF-15 (human, Disulfide-linked homodimer: two copies of this chain form the 24.6 kDa molecule of Table 1.).
T1 chain: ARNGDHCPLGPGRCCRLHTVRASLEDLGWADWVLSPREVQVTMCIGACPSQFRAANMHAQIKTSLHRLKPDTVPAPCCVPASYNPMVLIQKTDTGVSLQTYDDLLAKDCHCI
The experiment in a line: cell-based or functional assay.

Assay [2] addresses T1, recombinant human GDF-15. The experiment in a line: SPR, Biacore T3000, antibody captured by anti-human IgG Fc, GDF-15 injected. As to the method:
(§1) Affinity of CTL-002 to recombinant human GDF-15 was determined by measuring surface plasmon resonance on a Biacore T3000. In addition, the affinity to cynomolgus rat and mouse GDF-15 was measured (see Table 2).
(§2) All experiments were performed in 10 mM HEPES buffer, pH 7.4, 150 mM NaCl, 3.4 mM EDTA and 0.05% Tween. anti-human IgG Fc specific antibody (Jackson, Order #109-005-008, Lot #111148) was covalently immobilized by EDC/NHS chemistry on Biacore CM5 Chips (GE Healthcare, Order #61144275, Lot #10236645). For kinetic characterization of the antigen-antibody interaction pulses of increasing GDF-15 concentrations (e.g. 156.3 pM, 312 pM, 625 pM, 1,250 pM) were injected at a flow rate of 30 μl/min. After each measurement cycle (8 min of association followed by 30 min of dissociation) the antibody-antigen complex was resolved by regeneration of the surface with 10 mM glycine-HCl at pH 2.0. For calculation of the dissociation constant of CTL-002 the association and dissociation phases were recorded and evaluated by global fitting using the software BIAevaluation 4.1. For global fit analysis only, these antigen concentrations were taken into account, which allowed the analysis following the Langmuir 1:1 binding model or 1:1 binding with drifting baseline.
For orientation: In SPR one partner is held on a chip, and binding of the other changes the refractive index at the surface.

Another assay concerns the target T2, mouse GDF-15 (mouse, UniProt Q9Z0J7 189-303).
T2 construct: the construct used in SPR is not described; also called mGDF-15; murine GDF-15
T2 sequence (looked up): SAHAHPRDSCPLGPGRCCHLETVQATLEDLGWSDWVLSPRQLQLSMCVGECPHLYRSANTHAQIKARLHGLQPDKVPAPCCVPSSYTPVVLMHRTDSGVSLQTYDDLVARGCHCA
The assay is described as above. As to the method:
as §1, §2

In the next assay the target is T3, rat GDF-15 (rat, UniProt Q9Z0J6 189-303, limits assumed).
T3 construct: the construct used in SPR is not described
T3 sequence (looked up): T2 sequence (looked up) with A4L, Q63L, K75R, R110Q
The assay is described as above. As to the method: as §1, §2

Assay [3] has as its target cynomolgus GDF-15 (cynomolgus monkey). Described as above.

Substitutions are numbered along the chain they refer to. In names and notes the source's numbering stands.

Experimental findings from patent publication US20250304673A1 (CATALYM, published 2025) are described below.

A word on the Kd: it is the free concentration of one partner at which half of the binding sites on the other are occupied at equilibrium, for simple one-to-one binding.

B1: CTL-002 (antibody, human IgG4 S228P, kappa, V domains shown)
VH: QITLKESGPTLVKPTQTLTLTCTFSGFSLSTSGMGVSWIRQPPGKGLEWLAHIYWDDDKRYNPTLKSRLTITKDPSKNQVVLTMTNMDPVDTATYYCARSSYGAMDYWGQGTLVTVSS
VL: DIVLTQSPSFLSASVGDRVTITCKASQNVGTNVAWFQQKPGKSPKALIYSASYRYSGVPDRFTGSGSGTEFTLTISSLQPEDFAAYFCQQYNNFPYTFGGGTKLEIKR
notes: Humanized, hinge-stabilized IgG4 (IgG4 S228P) derived from mouse antibody B1-23; captured by anti-human IgG Fc on the chip in the SPR assay; also called visugromab; CTL-001 IgG4*
Turning to B1, the “EC50 of CTL-002 in the flow-adhesion assay with T cells” value in the assay with recombinant human GDF-15 [1] stood at 0.707 µg/mL. Besides, in the assay with recombinant human GDF-15 [1], the “EC50 of rescue of CD8+ T-cell adhesion, flow-adhesion assay” value was approximately 0.7 µg/mL. Further, the Kd was found to be 0.0383 nM in the assay with recombinant human GDF-15 [2], 9.76 nM in the assay with mouse GDF-15, 0.449 nM with rat GDF-15 and 0.108 nM in assay [3].
